Measured values reported in patent publication US20120014936A1 (SHIRE HUMAN GENETIC THERAPIES, published 2012).

Biological target: the molecule itself
Assay: SEC-HPLC with light scattering, self-association (homodimer)

B1: recombinant human heparan N-sulfatase (rhHNS), mature form (enzyme)
chain: RPRNALLLLADDGGFESGAYNNSAIATPHLDALARRSLLFRNAFTSVSSCSPSRASLLTGLPQHQNGMYGLHQDVHHFNSFDKVRSLPLLLSQAGVRTGIIGKKHVGPETVYPFDFAYTEENGSVLQVGRNITRIKLLVRKFLQTQDDRPFFLYVAFHDPHRCGHSQPQYGTFCEKFGNGESGMGRIPDWTPQAYDPLDVLVPYFVPNTPAARADLAAQYTTVGRMDQGVGLVLQELRDAGVLNDTLVIFTSDNGIPFPSGRTNLYWPGTAEPLLVSSPEHPKRWGQVSEAYVSLLDLTPTILDWFSIPYPSYAIFGSKTIHLTGRSLLPALEAEPLWATVFGSQSHHEVTMSYPMRSVQHRHFRLVHNLNFKMPFPIDQDFYVSPTFQDLLNRTTAGQPTGWYKDLRHYYYRARWELYDRSRDPHETQNLATDPRFAQLLEMLRDQLAKWQWETHDPWVCAPDGVLEEKLSPQCQPLHNEL
notes: In the immunohistochemistry it was detected in fixed monkey tissue after intrathecal dosing; also called sulfamidase; human HNS
binding result: binds
